Results taken from patent US20030211964, “Method of inhibiting pathogenicity of infectious agents” (Massachusetts Institute of Technology, published 2003).

T1: ZαADAR1 Y177A Y177A (Homo sapiens) (UniProt P55265)
T1 sequence: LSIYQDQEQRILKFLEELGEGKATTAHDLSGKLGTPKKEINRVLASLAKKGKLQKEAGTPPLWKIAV

T2: ZαADAR1 Y177F Y177F (Homo sapiens) (UniProt P55265)
T2 sequence: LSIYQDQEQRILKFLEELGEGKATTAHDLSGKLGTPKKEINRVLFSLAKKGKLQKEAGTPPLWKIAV

T3: Zα domain of ADAR1 (hZαADAR1) (Homo sapiens) (UniProt P55265)
T3 sequence: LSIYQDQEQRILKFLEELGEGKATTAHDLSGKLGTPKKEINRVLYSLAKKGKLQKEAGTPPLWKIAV

T4: Zα domain of ADAR1 (hZαADAR1) (Homo sapiens, UniProt P55265 SEQ:1-67)
T4 sequence: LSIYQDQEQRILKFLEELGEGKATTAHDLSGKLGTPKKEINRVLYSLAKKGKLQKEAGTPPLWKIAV

T5: ZαADAR1 Q186A (Homo sapiens, UniProt P55265 SEQ:1-67, Q186A)
T5 sequence: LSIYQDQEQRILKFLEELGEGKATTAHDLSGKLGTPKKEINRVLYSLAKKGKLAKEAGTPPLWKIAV

T6: ZαADAR1 E171A (Homo sapiens, UniProt P55265 SEQ:1-67, E171A)
T6 sequence: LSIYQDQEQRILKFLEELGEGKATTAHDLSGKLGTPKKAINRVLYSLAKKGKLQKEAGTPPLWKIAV

T7: Zβ domain of ADAR1 (hZβADAR1) (Homo sapiens, UniProt P55265 SEQ:1-62)
T7 sequence: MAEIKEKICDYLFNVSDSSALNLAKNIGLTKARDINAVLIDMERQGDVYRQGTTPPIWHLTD


What was measured:
[1] = biological target: T1, ZαADAR1 Y177A Y177A (Homo sapiens); assay: SPR; conditions: partial bromination (stabilises Z form); Z-DNA stabilised by bromination
[2] = biological target: T2, ZαADAR1 Y177F Y177F (Homo sapiens); assay: SPR; conditions: partial bromination (stabilises Z form); Z-DNA stabilised by bromination
[3] = biological target: T3, Zα domain of ADAR1 (hZαADAR1) (Homo sapiens); assay: SPR; conditions: partial bromination (stabilises Z form); Z-DNA stabilised by bromination
[4] = biological target: T4, Zα domain of ADAR1 (hZαADAR1); assay: CD at 255 nm; rapid, complete B-to-Z conversion; 90 uM bp DNA, 30 uM protein
ZαADAR1 Q186A = biological target: T5, ZαADAR1 Q186A; assay: CD at 255 nm; rate comparable to wild type
ZαADAR1 E171A = biological target: T6, ZαADAR1 E171A; assay: CD at 255 nm; rate comparable to wild type
[5] = biological target: T7, Zβ domain of ADAR1 (hZβADAR1); assay: CD at 255 nm; no change over time

| Molecule | Kd [1] [nM] | Kd [2] [nM] | Kd [3] [nM] | binding result [4] | binding result (ZαADAR1 Q186A) | binding result (ZαADAR1 E171A) | binding result [5] |
| --- | --- | --- | --- | --- | --- | --- | --- |
| partially brominated poly(dG-dC) | 700 | 350 | 40 |  |  |  |  |
| d(CG)6 (dsDNA) DNA 1: CGCGCGCGCGCG DNA 2: CGCGCGCGCGCG |  |  |  | binds | binds | binds | no binding |
